According to PMC5608322, “Spontaneous non-canonical assembly of CcmK hexameric components from β-carboxysome shells of cyanobacteria” (PLoS ONE, 2017):

Target: the molecule itself
Experiment: AFM imaging; purified protein adsorbed on freshly cleaved mica, imaged in buffer in contact mode at ambient temperature; 10 mM NaPi, MES or Tris, 300 mM NaCl, pH 5.0 to 8.0, some with 0.5 mM additives; hexamers tiling into 2D assemblies

Row | Protein | binding result
1 | NIR K2^-TH: triple mutant of CcmK2 Syn6803 with A63 A64 N65 replaced by NIR of CcmK1 (natural protein, Synechocystis sp. PCC6803, UniProt P72761 1-103, looked up, CcmK2, Synechocystis sp; PCC6803, as K2^-TH with residues 63-65 AAN replaced by NIR; TEV site between protein and tag as in K2^-TH; also called N^63IR K2^-TH 6803; source: E. coli BL21 (DE3), purified (TALON cobalt IMAC); not shown: His4, C-terminal, kept) MSIAVGMIETRGFPAVVEAADSMVKAARVTLVGYEKIGSGRVTVIVRGDVSEVQASVSAGIENIRRVNGGEVLSTHIIARPHENLEYVLPIRYTEEVEQFRTY | binds
2 | AAN K1^-TH: triple mutant of CcmK1 Syn6803 with N63 I64 R65 replaced by AAN of CcmK2 (natural protein, Synechocystis sp. PCC6803, UniProt P72760 1-111, looked up, CcmK1, Synechocystis sp; PCC6803, as K1^-TH with residues 63-65 NIR replaced by AAN; TEV site between protein and tag as in K1^-TH; also called A^63AN K1^-TH 6803; source: E. coli BL21 (DE3), purified (TALON cobalt IMAC); not shown: His4, C-terminal, kept) MSIAVGMIETLGFPAVVEAADSMVKAARVTLVGYEKIGSGRVTVIVRGDVSEVQASVTAGIEAANRVNGGEVLSNHIIARPHENLEYVLPIRYTEAVEQFREIVNPSIIRR | binds
3 | R28A/R80A double mutant of K1^-TH (CcmK1 Syn6803) (natural protein, Synechocystis sp. PCC6803, UniProt P72760 1-111, looked up, CcmK1, Synechocystis sp; PCC6803, as K1^-TH with R28A and R80A; TEV site between protein and tag as in K1^-TH; source: E. coli BL21 (DE3), purified (TALON cobalt IMAC); not shown: His4, C-terminal, kept) MSIAVGMIETLGFPAVVEAADSMVKAAAVTLVGYEKIGSGRVTVIVRGDVSEVQASVTAGIENIRRVNGGEVLSNHIIAAPHENLEYVLPIRYTEAVEQFREIVNPSIIRR | binds
4 | R80A mutant of K1^-TH (CcmK1 Syn6803) (natural protein, Synechocystis sp. PCC6803, UniProt P72760 1-111, looked up, CcmK1, Synechocystis sp; PCC6803, as K1^-TH with R80A; TEV site between protein and tag as in K1^-TH; source: E. coli BL21 (DE3), purified (TALON cobalt IMAC); not shown: His4, C-terminal, kept) MSIAVGMIETLGFPAVVEAADSMVKAARVTLVGYEKIGSGRVTVIVRGDVSEVQASVTAGIENIRRVNGGEVLSNHIIAAPHENLEYVLPIRYTEAVEQFREIVNPSIIRR | binds
5 | R28A mutant of K1^-TH (CcmK1 Syn6803) (natural protein, Synechocystis sp. PCC6803, UniProt P72760 1-111, looked up, CcmK1, Synechocystis sp; PCC6803, as K1^-TH with R28A; TEV site between protein and tag as in K1^-TH; source: E. coli BL21 (DE3), purified (TALON cobalt IMAC); not shown: His4, C-terminal, kept) MSIAVGMIETLGFPAVVEAADSMVKAAAVTLVGYEKIGSGRVTVIVRGDVSEVQASVTAGIENIRRVNGGEVLSNHIIARPHENLEYVLPIRYTEAVEQFREIVNPSIIRR | binds
6 | D49A mutant of K1^-TH (CcmK1 Syn6803) (natural protein, Synechocystis sp. PCC6803, UniProt P72760 1-111, looked up, CcmK1, Synechocystis sp; PCC6803, as K1^-TH with D49A; TEV site between protein and tag as in K1^-TH; source: E. coli BL21 (DE3), purified (TALON cobalt IMAC); not shown: His4, C-terminal, kept) MSIAVGMIETLGFPAVVEAADSMVKAARVTLVGYEKIGSGRVTVIVRGAVSEVQASVTAGIENIRRVNGGEVLSNHIIARPHENLEYVLPIRYTEAVEQFREIVNPSIIRR | binds

Target: the molecule itself
Experiment: native MS; nano-ESI Q-ToF, positive ion mode, 150 mM ammonium acetate pH 8, soft ionization; tandem MS/MS (CID) of hexamer ions gives monomers and pentamers; oligomer of the protein with itself

Row | Protein | stoichiometry N
7 | CcmK1 from Synechocystis sp. PCC6803, TEV-proteolysis product of K1^-TH (K1^-) (natural protein, UniProt P72760 1-111, looked up, CcmK1, Synechocystis sp; PCC6803, full-length gene, codon-optimized for E. coli; Measured mass indicated loss of the first Met residue; also called untagged K1^- 6803; Syn6803 K1^-; source: E. coli BL21 (DE3), purified (TALON cobalt IMAC), tag removed with turbo TEV protease; not shown: His4, C-terminal, cleaved) MSIAVGMIETLGFPAVVEAADSMVKAARVTLVGYEKIGSGRVTVIVRGDVSEVQASVTAGIENIRRVNGGEVLSNHIIARPHENLEYVLPIRYTEAVEQFREIVNPSIIRR | 6
8 | CcmK4 from Synechocystis sp. PCC6803, TEV-proteolysis product of K4^-TH (K4^-) (natural protein, UniProt P73407 1-112, looked up, CcmK4, Synechocystis sp; PCC6803, full-length gene, codon-optimized for E. coli; Sample partly degraded by proteolysis (species of similar but not identical mass in native MS); Measured mass indicated loss of the first Met residue; also called Syn6803 K4^-; source: E. coli BL21 (DE3), purified (TALON cobalt IMAC), tag removed with turbo TEV protease; not shown: His4, C-terminal, cleaved) MSAQSAVGSIETIGFPGILAAADAMVKAGRITIVGYIRAGSARFTLNIRGDVQEVKTAMAAGIDAINRTEGADVKTWVIIPRPHENVVAVLPIDFSPEVEPFREAAEGLNRR | 6
9 | CcmK4 from Synechocystis sp. PCC6803, TEV-proteolysis product of ^HT-K4 (^-K4) (natural protein, UniProt P73407 1-112, looked up, CcmK4, Synechocystis sp; PCC6803, full-length gene, codon-optimized for E. coli; also called Syn6803 -K4; source: E. coli BL21 (DE3), purified (TALON cobalt IMAC), tag removed with turbo TEV protease; not shown: His4, N-terminal, cleaved) MSAQSAVGSIETIGFPGILAAADAMVKAGRITIVGYIRAGSARFTLNIRGDVQEVKTAMAAGIDAINRTEGADVKTWVIIPRPHENVVAVLPIDFSPEVEPFREAAEGLNRR | 6
10 | CcmK2 from Synechococcus elongatus PCC 7942 with C-terminal His6 tag (K2^-H Syn7942) (natural protein, Synechococcus elongatus PCC7942, UniProt Q03511 1-102, looked up, also called K2^-H 7942; Syn7942 K2^-H; source: E. coli BL21 (DE3), purified (TALON cobalt IMAC); not shown: His6, C-terminal, kept) MPIAVGMIETLGFPAVVEAADAMVKAARVTLVGYEKIGSGRVTVIVRGDVSEVQASVSAGLDSAKRVAGGEVLSHHIIARPHENLEYVLPIRYTEAVEQFRM | 6

Target: the molecule itself
Experiment: SEC; Beckman Ultraspherogel SEC2000 column, 20 mM Tris-HCl, 300 mM NaCl, pH 7; size by comparison with calibration standards; oligomer of the protein with itself

Row | Protein | stoichiometry N
11 | CcmK1 from Synechocystis sp. PCC6803 with C-terminal TEV site and His4 tag (K1^-TH) (natural protein, UniProt P72760 1-111, looked up, CcmK1, Synechocystis sp; PCC6803, full-length gene, codon-optimized for E. coli; A TEV protease recognition site stands between protein and His4 tag; also called K1^-TH 6803; CcmK1 Syn6803; source: E. coli BL21 (DE3), purified (TALON cobalt IMAC); not shown: His4, C-terminal, kept) MSIAVGMIETLGFPAVVEAADSMVKAARVTLVGYEKIGSGRVTVIVRGDVSEVQASVTAGIENIRRVNGGEVLSNHIIARPHENLEYVLPIRYTEAVEQFREIVNPSIIRR | 6
12 | CcmK4 from Synechocystis sp. PCC6803 with N-terminal His4 tag and TEV site (^HT-K4) (natural protein, UniProt P73407 1-112, looked up, CcmK4, Synechocystis sp; PCC6803, full-length gene, codon-optimized for E. coli; A TEV site stands between tag and protein; source: E. coli BL21 (DE3), purified (TALON cobalt IMAC); not shown: His4, N-terminal, kept) MSAQSAVGSIETIGFPGILAAADAMVKAGRITIVGYIRAGSARFTLNIRGDVQEVKTAMAAGIDAINRTEGADVKTWVIIPRPHENVVAVLPIDFSPEVEPFREAAEGLNRR | 6
13 | CcmK4 from Synechocystis sp. PCC6803 with C-terminal TEV site and His4 tag (K4^-TH) (natural protein, UniProt P73407 1-112, looked up, CcmK4, Synechocystis sp; PCC6803, full-length gene, codon-optimized for E. coli; source: E. coli BL21 (DE3), purified (TALON cobalt IMAC); not shown: His4, C-terminal, kept) MSAQSAVGSIETIGFPGILAAADAMVKAGRITIVGYIRAGSARFTLNIRGDVQEVKTAMAAGIDAINRTEGADVKTWVIIPRPHENVVAVLPIDFSPEVEPFREAAEGLNRR | 6
